The labels stand for the following.
T1: U-II receptors (rat thoracic aorta tissue) (rat, UniProt P49684 1-386)
T1 sequence (looked up): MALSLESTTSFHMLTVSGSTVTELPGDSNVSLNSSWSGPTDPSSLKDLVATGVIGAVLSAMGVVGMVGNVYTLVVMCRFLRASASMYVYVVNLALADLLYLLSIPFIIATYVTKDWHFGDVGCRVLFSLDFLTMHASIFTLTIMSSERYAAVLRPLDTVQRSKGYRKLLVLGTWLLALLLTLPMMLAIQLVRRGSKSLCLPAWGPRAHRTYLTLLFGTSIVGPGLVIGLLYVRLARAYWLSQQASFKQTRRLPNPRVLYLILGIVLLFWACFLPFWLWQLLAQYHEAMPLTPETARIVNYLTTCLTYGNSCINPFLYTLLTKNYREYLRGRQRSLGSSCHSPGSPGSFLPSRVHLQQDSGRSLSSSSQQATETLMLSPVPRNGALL

T2: U-II receptors (Rattus norvegicus, UniProt P49684)
T2 construct: from tissue; host or cells: rat thoracic aorta (circular strips / rings)
T2 sequence (P49684 1-386): T1 sequence (looked up)

B1: Cpa-D-Cys-Tyr-D-Trp-Lys-Thr-Cys-Nal-NH2 (SEQ ID NO: 9) (peptide)
peptide: XXYXKTCX
modifications: Cpa (p-chlorophenylalanine) at 1; D-Cys at 2; D-Trp at 4; Nal (naphthylalanine) at 8; C-terminal amide

Bridge positions count the residues as written; N and C are the ends. Square brackets hold non-standard residues; d marks the D form. Ends that are not written are not given here. Peptide text beside a SMILES is read from it. dDip = N[C@@H](C(=O)O)C(c1ccccc1)c1ccccc1; Phe(4-Cl) = N[C@@H](Cc1ccc(Cl)cc1)C(=O)O; Phe(4-F) = N[C@@H](Cc1ccc(F)cc1)C(=O)O; 2Nal = N[C@@H](Cc1ccc2ccccc2c1)C(=O)O; 3Pal = N[C@@H](Cc1cccnc1)C(=O)O; Tle = CC(C)(C)[C@H](N)C(=O)O; Nal = naphthylalanine

The target in the first assay is U-II receptors (rat thoracic aorta tissue) (rat) (UniProt P49684). The assay is described as follows: cell-based or functional assay.
Conditions: not given
Consider “Cpa-c[D-Cys-Pal-D-Trp-Lys-Val-Cys]-Cpa-amide (SEQ ID NO: 4) (peptide)”, for which the IC50 against U-II-induced phasic contractions of circular rat thoracic aorta strips was 100 nM.

A further assay addresses T1, U-II receptors (rat thoracic aorta …). Kind of assay: cell-based or functional assay.
Conditions: not given
With [Phe(4-Cl)][dC]FWKTCV-NH2 (disulfide 2-7 (inferred)) [Cpa-c[D-Cys-Phe-Trp-Lys-Thr-Cys]-Val-NH2 (SEQ ID NO: 5)], the “IC50 against U-II-induced phasic contractions of circular rat thoracic aorta strips” value came to 2 nM.

The target is the same in another assay. Kind of assay: cell-based or functional assay.
Conditions: not given
This is another data set of the same source.
Take [Phe(4-F)][dC][3Pal][dW]K[Tle]C[Nal]-NH2 (disulfide 2-7 (inferred)) [4Fpa-D-Cys-Pal-D-Trp-Lys-Tle-Cys-Nal-NH2 (SEQ ID NO: 8)]: the “IC50 (nM) against U-II Stimulation of Rat Aorta Phasic Contractions” value turned out to be 100 nM. Still for that read-out and setting: under B1 stands 12 nM. Still for that read-out and setting: next, [Nal][dC]H[dW]KVC[dDip]-NH2 (disulfide 2-7 (inferred)) [Nal-D-Cys-His-D-Trp-Lys-Val-Cys-D-Dip-NH2 (SEQ ID NO: 6)]: 1800 nM. On the same count and under the same terms, under [Phe(4-F)][dC][3Pal][dW]KVC[Nal]-NH2 (disulfide 2-7 (inferred)) [4Fpa-D-Cys-Pal-D-Trp-Lys-Val-Cys-Nal-NH2 (SEQ ID NO: 7)] stands 1090 nM; under [Phe(4-Cl)][dC][3Pal]WKTC[Phe(4-Cl)]-NH2 (disulfide 2-7 (inferred)) [Cpa-D-Cys-Pal-Trp-Lys-Thr-Cys-Cpa-NH2 (SEQ ID NO: 11)], 2 nM; under [Phe(4-Cl)][dC][3Pal][dW]K[Tle]C[Nal]-NH2 (disulfide 2-7 (inferred)) [Cpa-D-Cys-Pal-D-Trp-Lys-Tie-Cys-Nal-NH2 (SEQ ID NO: 10)], 10 nM.

A further assay has as its system U-II Stimulation of Rat Aorta Phasic Contractions.
Assay: not given
Conditions: not given
As for the experimental part:
Example 2: Use of Rat Aorta Circular Strip for Assay U-II Antagonists
Male Sprague-Dawley rats (250-350 g), which had been quarantined for 5-7 days prior to the experiments, were sacrificed by decapitation (experiments were approved by the Advisory Committee For Animal Resources, Tulane University School of Medicine). The thoracic aorta was dissected, freed from connective tissue, and cut into rings of about 1.5 mm in width. The rings were suspended in a 15 ml organ bath containing high potassium Kreb's solution (9.15 g/L potassium chloride, 2.1 g/L sodium bicarbonate, 1.0 g/L glucose, 0.16 g/L potassium phosphate monobasic. 0.14 g/L magnesium sulfate (anhydr.), and 0.22 g/L calcium chloride (dihydr.))
Optimal tension was applied (0.2 g) to the tissues and the bath medium was maintained at 37°C and bubbled with a mixture of 95% O2/5% CO2. Prior to mounting in the organ bath, selected preparations were rubbed with a moistened cotton wool swab, in order to remove the endothelial cell layer, and the effect of this procedure was tested using an acetylcholine-relaxation test. (Gibson, A., Br. J. Pharmacol. 91:205 (1987)). The aorta rings were allowed to equilibrate for 90 min. at the optimal tensions. During the equilibration period, the bath solution was replaced every 15 min. Contractile responses of aortae rings to various concentrations of peptides were expressed in volts. Changes in arterial smooth muscle tension were recorded isometrically using a force-displacement transducer (Radnoti), and a AcqKnowledge ACK100 Version 3.2 (BIOPAC Systems, Inc., Santa Barbara, CA.)
In siliconized glass tubes, peptides were dissolved in dionized water at a concentration of 1 µg/1µL (stock solution) and then diluted 1:10 with sterile BSA-saline solution (0.1% BSA, fraction V, Sigma, St. Louis in 0.9% NaCl). All peptide solutions were prepared fresh directly before the experiments. Peptides in the concentration ranges of 10^-6 to 10^-12 M/L in a final volume of 16-80 µL were direcly introduced into the tested organ bath containing Krebs buffer continuously gassed with 95% O, and 5% CO2, and the aorta rings at an optimal resting tension (1 - 0.2g). Peptide-induced changes in tension of the aorta rings were recorded by force-displacement transducers and processed by the computer system BIOPAC Inc., as described above. Each ring was exposed to one peptide concentration only.
Various somatostatin (SRIF) antagonists were discovered to have the ability to block UII-induced phase contractions in the circular rat thoracic aorta strips. […] The polypeptide Cpa-c[D-Cys-Phe-Trp-Lys-Thr-Cys]-ValNH2 was also a strong U-II antagonist with an IC50 of 2nM. Table 1. SRIF Antagonist IC50s (nM) against U-II Stimulation of Rat Aorta Phasic Contractions
By IC50 is commonly meant the concentration needed to halve the response being measured. Low readings indicate greater potency in that assay, high ones weaker potency in that assay. As to `CC(C)(C)[C@@H]1NC(=O)[C@H](CCCCN)NC(=O)[C@@H](Cc2c[nH]c3ccccc23)NC(=O)[C@H](Cc2cccnc2)NC(=O)[C@H](NC(=O)[C@@H](N)Cc2ccc(F)cc2)CSSC[C@@H](C(=O)N[C@@H](Cc2ccc3ccccc3c2)C(N)=O)NC1=O` [4Fpa-D-Cys-Pal-D-Trp-Lys-Tle-Cys-Nal-NH2] (H-[Phe(4-F)][dC][3Pal][dW]K[Tle]C[2Nal]-NH2; disulfide 2-7; N-terminus assumed), the half-maximal inhibitory concentration (IC50) came out at 100 nM.

As for `CC(C)[C@@H]1NC(=O)[C@H](CCCCN)NC(=O)[C@@H](Cc2c[nH]c3ccccc23)NC(=O)[C@H](Cc2cccnc2)NC(=O)[C@H](NC(=O)[C@@H](N)Cc2ccc(F)cc2)CSSC[C@@H](C(=O)N[C@@H](Cc2ccc3ccccc3c2)C(N)=O)NC1=O` [4Fpa-D-Cys-Pal-D-Trp-Lys-Val-Cys-Nal-NH2] (H-[Phe(4-F)][dC][3Pal][dW]KVC[2Nal]-NH2; disulfide 2-7; N-terminus assumed), the IC50 worked out at 1090 nM. Molecule `CC(C)(C)[C@@H]1NC(=O)[C@H](CCCCN)NC(=O)[C@@H](Cc2c[nH]c3ccccc23)NC(=O)[C@H](Cc2cccnc2)NC(=O)[C@H](NC(=O)[C@@H](N)Cc2ccc(Cl)cc2)CSSC[C@@H](C(=O)N[C@@H](Cc2ccc3ccccc3c2)C(N)=O)NC1=O` [Cpa-D-Cys-Pal-D-Trp-Lys-Tie-Cys-Nal-NH2] (H-[Phe(4-Cl)][dC][3Pal][dW]K[Tle]C[2Nal]-NH2; disulfide 2-7; N-terminus assumed) returned a half-inhibitory concentration (IC50) of 10 nM. Molecule `C[C@@H](O)[C@@H]1NC(=O)[C@H](CCCCN)NC(=O)[C@H](Cc2c[nH]c3ccccc23)NC(=O)[C@H](Cc2cccnc2)NC(=O)[C@H](NC(=O)[C@@H](N)Cc2ccc(Cl)cc2)CSSC[C@@H](C(=O)N[C@@H](Cc2ccc(Cl)cc2)C(N)=O)NC1=O` [Cpa-D-Cys-Pal-Trp-Lys-Thr-Cys-Cpa-NH2] registered an IC50 of 2 nM. As for `C[C@@H](O)[C@@H]1NC(=O)[C@H](CCCCN)NC(=O)[C@@H](Cc2c[nH]c3ccccc23)NC(=O)[C@H](Cc2ccc(O)cc2)NC(=O)[C@H](NC(=O)[C@@H](N)Cc2ccc(Cl)cc2)CSSC[C@@H](C(=O)N[C@@H](Cc2ccc3ccccc3c2)C(N)=O)NC1=O` [Cpa-D-Cys-Tyr-D-Trp-Lys-Thr-Cys-Nal-NH2] (H-[Phe(4-Cl)][dC]Y[dW]KTC[2Nal]-NH2; disulfide 2-7; N-terminus assumed), the IC50 was found to be 12 nM. Compared with the last molecule, the IC50 is about 6-fold higher. The same measure, in the same setting: next, `CC(C)[C@@H]1NC(=O)[C@H](CCCCN)NC(=O)[C@@H](Cc2c[nH]c3ccccc23)NC(=O)[C@H](Cc2cccnc2)NC(=O)[C@H](NC(=O)[C@@H](N)Cc2ccc(Cl)cc2)CSSC[C@@H](C(=O)N[C@@H](Cc2ccc(Cl)cc2)C(N)=O)NC1=O` [Cpa-c[D-Cys-Pal-D-Trp-Lys-Val-Cys]-Cpa-amide] (H-[Phe(4-Cl)][dC][3Pal][dW]KVC[Phe(4-Cl)]-NH2; disulfide 2-7): approximately 100 nM. The same measure, in the same setting: next, `CC(C)[C@@H]1NC(=O)[C@H](CCCCN)NC(=O)[C@@H](Cc2c[nH]c3ccccc23)NC(=O)[C@H](Cc2c[nH]cn2)NC(=O)[C@H](NC(=O)[C@@H](N)Cc2ccc3ccccc3c2)CSSC[C@@H](C(=O)N[C@@H](C(N)=O)C(c2ccccc2)c2ccccc2)NC1=O` [Nal-D-Cys-His-D-Trp-Lys-Val-Cys-D-Dip-NH2] (H-[2Nal][dC]H[dW]KVC[dDip]-NH2; disulfide 2-7; N-terminus assumed): 1800 nM.

A further assay deals with T2, U-II receptors. The assay is described as follows: Binding to U-II receptors (rat aorta tissue). The conditions noted are these: unit inferred.
Broadly, the Kd is the concentration at which binding is half-saturated. Low values mean tighter binding, high ones weaker binding. Turning to `CC(C)[C@@H]1NC(=O)[C@H](CCCCN)NC(=O)[C@@H](Cc2c[nH]c3ccccc23)NC(=O)[C@H](Cc2cccnc2)NC(=O)[C@H](NC(=O)[C@@H](N)Cc2ccc(Cl)cc2)CSSC[C@@H](C(=O)N[C@@H](Cc2ccc(Cl)cc2)C(N)=O)NC1=O` [Cpa-c[D-Cys-Pal-D-Trp-Lys-Val-Cys]-Cpa-amide] (H-[Phe(4-Cl)][dC][3Pal][dW]KVC[Phe(4-Cl)]-NH2; disulfide 2-7), the affinity, expressed as Kd, was 240 nM.

The values above are taken from EP1878743A2, “Urotensin-II agonists and antagonists” (The Administrators of The Tulane Educational Fund, priority 2000, dated 2002).
